pKd: −log10 of the molar value. “And” between values parts separate entries of the source, which are not always exact repeats. Equal entries are not always repeated.
Legend:
Assay in all cases: fluorescence fluctuation spectroscopy
[1] = target: HIV-1 capsid particles self-assembled from CA [change] (disulfide cross-linked cones and tubes) (HIV-1)
[2] = target: Full-length GFP-CPSF6 (isoform 2; cell-free expressed, N-terminal GFP tag)
[3] = target: AF568-labelled HIV-1 capsid particles co-assembled from CA [change] and CA [change]-AF568 (HIV-1)

Sequence of Full-length GFP-CPSF6 (isoform 2; cell-free expressed, N-terminal GFP tag) (Q16630 whole entry, canonical isoform): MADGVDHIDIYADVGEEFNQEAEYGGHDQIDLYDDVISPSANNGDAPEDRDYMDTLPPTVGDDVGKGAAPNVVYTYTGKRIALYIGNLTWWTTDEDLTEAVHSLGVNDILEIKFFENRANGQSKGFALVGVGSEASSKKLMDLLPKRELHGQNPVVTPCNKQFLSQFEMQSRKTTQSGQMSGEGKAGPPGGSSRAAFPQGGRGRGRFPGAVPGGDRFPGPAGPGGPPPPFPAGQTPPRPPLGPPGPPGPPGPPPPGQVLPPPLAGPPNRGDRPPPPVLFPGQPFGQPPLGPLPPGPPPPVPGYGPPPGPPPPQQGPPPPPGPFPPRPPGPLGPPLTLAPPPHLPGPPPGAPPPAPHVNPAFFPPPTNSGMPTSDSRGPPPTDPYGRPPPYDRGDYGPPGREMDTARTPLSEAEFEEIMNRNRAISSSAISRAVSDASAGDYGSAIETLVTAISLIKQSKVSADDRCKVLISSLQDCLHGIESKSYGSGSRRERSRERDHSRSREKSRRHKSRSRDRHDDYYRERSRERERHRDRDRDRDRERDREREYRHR

| Substance | fold increase in the brightness parameter in the presence of capsid [1] [fold] | fold increase in the brightness parameter compared to monomeric GFP [2] | pKd [3] | analyte:CA intensity ratio relative to CPSF6-AF488 [3] [fold] |
| --- | --- | --- | --- | --- |
| Full-length GFP-CPSF6 (isoform 2; cell-free expressed, N-terminal GFP tag) (natural protein) | 10 | 4 fold and 8 fold |  |  |
| Untagged recombinant CypA labelled with Alexa Fluor 488-C5 maleimide (from UniProt P62937 1-165) (natural protein) |  |  | 4.78 | 5 |

Source: doi:10.1101/2020.11.13.382242
